What was measured:
human IGFBP-1 = target: T1, human IGFBP-1 (human, UniProt P08833 26-259); assay: competitive phage ELISA
T1 construct: biotinylated in the ELISA formats; amine-coupled to the chip in peptide kinetics
T1 sequence (looked up): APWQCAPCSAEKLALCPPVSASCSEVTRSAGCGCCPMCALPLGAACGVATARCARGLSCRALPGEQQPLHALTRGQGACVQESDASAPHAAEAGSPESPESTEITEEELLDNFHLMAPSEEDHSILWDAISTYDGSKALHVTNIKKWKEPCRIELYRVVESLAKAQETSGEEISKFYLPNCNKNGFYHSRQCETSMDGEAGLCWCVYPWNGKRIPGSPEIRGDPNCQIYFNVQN

[1] = target: T2, recombinant human IGFBP-3 (human, UniProt P17936 28-291); assay: competitive phage ELISA
T2 construct: biotinylated and held on a streptavidin chip in the ALS experiment
T2 sequence (P17936 28-291 limits assumed): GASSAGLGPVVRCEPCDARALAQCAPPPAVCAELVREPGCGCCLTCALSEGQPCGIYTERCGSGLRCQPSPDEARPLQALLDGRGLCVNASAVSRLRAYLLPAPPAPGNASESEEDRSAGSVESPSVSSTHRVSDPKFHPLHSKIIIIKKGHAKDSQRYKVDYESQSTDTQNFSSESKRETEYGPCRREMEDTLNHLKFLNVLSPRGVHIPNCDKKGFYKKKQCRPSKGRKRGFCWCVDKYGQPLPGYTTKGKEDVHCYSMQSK

Substance | IC50 (human IGFBP-1) | relative IC50 (mut/G1S-A70V) (human IGFBP-1) | IC50 [1] | relative IC50 (mut/G1S-A70V) [1]
G30A IGF-1 (G1S-A70V background) on phage (from UniProt P69168 267-424) (ligand) | 7.1 nM | 0.9 | 0.58 nM | 0.8
T29A IGF-1 (G1S-A70V background) on phage (from UniProt P69168 267-424) (ligand) | 7.3 nM | 0.9 | 1.23 nM | 1.6
S35A IGF-1 (G1S-A70V background) on phage (from UniProt P69168 267-424) (ligand) | 11.7 nM | 1.4 | 0.47 nM | 0.6
R56A IGF-1 (G1S-A70V background) on phage (from UniProt P69168 267-424) (ligand) | 13.1 nM | 1.6 | 1 nM | 1.3
E3A IGF-1 (G1S-A70V background) on phage (from UniProt P69168 267-424) (ligand) | 278 nM | 33.9 | 1.05 nM | 1.4
D53A IGF-1 (G1S-A70V background) on phage (from UniProt P69168 267-424) (ligand) | 15.3 nM | 1.9 | 1.05 nM | 1.2
S33A IGF-1 (G1S-A70V background) on phage (from UniProt P69168 267-424) (ligand) | 9.1 nM | 1.1 | 1.01 nM | 1.3
T41A IGF-1 (G1S-A70V background) on phage (from UniProt P69168 267-424) (ligand) | 13.7 nM | 1.7 | 0.43 nM | 0.6
L5A IGF-1 (G1S-A70V background) on phage (from UniProt P69168 267-424) (ligand) | 55.3 nM | 6.7 | 1.53 nM | 2
P66A IGF-1 (G1S-A70V background) on phage (from UniProt P69168 267-424) (ligand) | 9.4 nM | 1.1 | 0.57 nM | 0.8
S34A IGF-1 (G1S-A70V background) on phage (from UniProt P69168 267-424) (ligand) | 9.5 nM | 1.2 | 1.65 nM | 2.2
S1G IGF-1 (single mutant of G1S-A70V) on phage (from UniProt P69168 267-424) (ligand) | 11.2 nM | 1.4 | 0.99 nM | 1.3
V70A IGF-1 (single mutant of G1S-A70V) on phage (from UniProt P69168 267-424) (ligand) | 19.1 nM | 2.3 | 0.68 nM | 0.9
Y60A IGF-1 (G1S-A70V background) on phage (from UniProt P69168 267-424) (ligand) | 6.6 nM | 0.8 | 0.52 nM | 0.7
P63A IGF-1 (G1S-A70V background) on phage (from UniProt P69168 267-424) (ligand) | > 1000 nM | > 100 | > 100 nM | > 100
M59A IGF-1 (G1S-A70V background) on phage (from UniProt P69168 267-424) (ligand) | 13.1 nM | 1.6 | 0.74 nM | 1
F49A IGF-1 (G1S-A70V background) on phage (from UniProt P69168 267-424) (ligand) | > 1000 nM | > 100 | 2.72 nM | 3.6
E58A IGF-1 (G1S-A70V background) on phage (from UniProt P69168 267-424) (ligand) | 11.9 nM | 1.5 | 1.03 nM | 1.4
R37A IGF-1 (G1S-A70V background) on phage (from UniProt P69168 267-424) (ligand) | 12.3 nM | 1.5 | 0.75 nM | 1
T4A IGF-1 (G1S-A70V background) on phage (from UniProt P69168 267-424) (ligand) | 19.4 nM | 2.4 | 0.8 nM | 1.1

Substance | IC50 (human IGFBP-1) | relative IC50 (mut/G1S-A70V) (human IGFBP-1) | IC50 [1] | relative IC50 (mut/G1S-A70V) [1]
S51A IGF-1 (G1S-A70V background) on phage (from UniProt P69168 267-424) (ligand) | 13.4 nM | 1.6 | 0.65 nM | 0.9
I43A IGF-1 (G1S-A70V background) on phage (from UniProt P69168 267-424) (ligand) | 31.3 nM | 3.8 | 1.17 nM | 1.6
R50A IGF-1 (G1S-A70V background) on phage (from UniProt P69168 267-424) (ligand) | 16.2 nM | 2 | 0.64 nM | 0.9
L57A IGF-1 (G1S-A70V background) on phage (from UniProt P69168 267-424) (ligand) | 21.8 nM | 2.7 | 1.78 nM | 2.4
G7A IGF-1 (G1S-A70V background) on phage (from UniProt P69168 267-424) (ligand) | > 1000 nM | > 100 | 4.58 nM | 6.1
K65A IGF-1 (G1S-A70V background) on phage (from UniProt P69168 267-424) (ligand) | 12.4 nM | 1.5 | 0.69 nM | 0.9
E46A IGF-1 (G1S-A70V background) on phage (from UniProt P69168 267-424) (ligand) | 7.9 nM | 1 | 0.94 nM | 1.3
S69A IGF-1 (G1S-A70V background) on phage (from UniProt P69168 267-424) (ligand) | 12.8 nM | 1.6 | 0.71 nM | 1.2
K68A IGF-1 (G1S-A70V background) on phage (from UniProt P69168 267-424) (ligand) | 10.5 nM | 1.3 | 0.76 nM | 1
E9A IGF-1 (G1S-A70V background) on phage (from UniProt P69168 267-424) (ligand) | 8.6 nM | 1 | 1.32 nM | 1.8
L64A IGF-1 (G1S-A70V background) on phage (from UniProt P69168 267-424) (ligand) | 12.1 nM | 1.5 | 0.93 nM | 1.2
L54A IGF-1 (G1S-A70V background) on phage (from UniProt P69168 267-424) (ligand) | 23.1 nM | 2.8 | 1.83 nM | 2.4
Q40A IGF-1 (G1S-A70V background) on phage (from UniProt P69168 267-424) (ligand) | 10.2 nM | 1.2 | 0.56 nM | 0.7
G32A IGF-1 (G1S-A70V background) on phage (from UniProt P69168 267-424) (ligand) | 10.9 nM | 1.3 | 0.76 nM | 1
R55A IGF-1 (G1S-A70V background) on phage (from UniProt P69168 267-424) (ligand) | 9 nM | 1.1 | 0.66 nM | 0.9
Y31A IGF-1 (G1S-A70V background) on phage (from UniProt P69168 267-424) (ligand) | 6.8 nM | 0.8 | 0.73 nM | 1
G42A IGF-1 (G1S-A70V background) on phage (from UniProt P69168 267-424) (ligand) | 15.7 nM | 1.9 | 0.53 nM | 0.7
D45A IGF-1 (G1S-A70V background) on phage (from UniProt P69168 267-424) (ligand) | 4.7 nM | 0.6 | 0.69 nM | 0.9
V44A IGF-1 (G1S-A70V background) on phage (from UniProt P69168 267-424) (ligand) | 18.8 nM | 2.3 | 1.03 nM | 1.4
